Measured values published in paper PMC5614712 (Biochemistry and Biophysics Reports, 2017).

Target: the molecule itself
Assay: crystal structure

B1: Y93H ttCK (uridine-cytidine kinase TTHA0578 of Thermus thermophilus HB8, Tyr93 replaced by His) (enzyme)
chain: MSAPKPFVIGIAGGTASGKTTLAQALARTLGERVALLPMDHYYKDLGHLPLEERLRVNYDHPDAFDLALYLEHAQALLRGLPVEMPVYDFRAHTRSPRRTPVRPAPVVILEGILVLYPKELRDLMDLKVFVDADADERFIRRLKRDVLERGRSLEGVVAQYLEQVKPMHLHFVEPTKRYADVIVPRGGQNPVALEMLAAKALARLARMGAA
stoichiometry N: 4
